# Laboratory results: FireProtDB (doi:10.1016/s0167-4838(99)00132-6)
# B1: Glyceraldehyde-3-phosphate dehydrogenase A wild type, P0A9B2 (protein)
# chain: MTIKVGINGFGRIGRIVFRAAQKRSDIEIVAINDLLDADYMAYMLKYDSTHGRFDGTVEVKDGHLIVNGKKIRVTAERDPANLKWDEVGVDVVAEATGLFLTDETARKHITAGAKKVVMTGPSKDNTPMFVKGANFDKYAGQDIVSNASCTTNCLAPLAKVINDNFGIIEGLMTTVHATTATQKTVDGPSHKDWRGGRGASQNIIPSSTGAAKAVGKVLPELNGKLTGMAFRVPTPNVSVVDLTVRLEKAATYEQIKAAVKAAAEGEMKGVLGYTEDDVVSTDFNGEVCTSVFDAKAGIALNDNFVKLVSWYDNETGYSNKVLDLIAHISK
# Settings: Escherichia coli (strain K12), Thermal, DSC, KH2PO4-KOH 10 mM, reversible: no, whole UniProt chain shown
protein,measurement,setting,value
B1,Tm,pH 6,75.3 °C
same,unfolding enthalpy (calorimetric),pH 6,908 kcal/mol
same,Tm,pH 8,72.6 °C
same,unfolding enthalpy (calorimetric),pH 8,1080 kcal/mol
